According to US20020031818A1, “Modification of Mdm2 activity” (priority 2000, published 2002):

Columns and labels:
[1] = target: T1, Ubc9 (Mus musculus, UniProt P63280); experiment: Ubc9 capture by peptide immobilized on AminoLink column, Western blot; assay type: binding; settings: peptide-bound beads incubated with cell lysates from EJ mouse fibroblast cells; Western blot with Ubc9 antibodies
T1 construct: endogenous in cells; host or cells: NIH 3T3
Description: (§1) FIGS. 9A and 9B. A. A peptide corresponding to aa 40-59 on Mdm2 binds Ubc9. mu9bs (Mdm2 Ubc9 binding site) corresponding to aa 40-59 of Mdm2 and its control scrambled counterpart peptide mu9sb (were immobilized on an AminoLink column [Pierce]). 50 μl of peptide-bound beads were incubated with 1 mg of cell lysates from EJ mouse fibroblast cells. Beads were washed extensively with 0.5M LiCl/TBS and eluates were separated on a 14% gel. B. Ubc9 binds to mu9bs in vivo. NIH 3T3 cells were transfected with wt or mutant Ubc9 binding site peptide. 36 h after transfection cells were lysed and lysates were immunoprecipitated with HA-antibodies directed against the HA-tag of transfected peptides. Upper panel depicts to Co-immunoprecipitation of Ubc9 with the wt but not the mutant peptide.
Immunobilization of peptides to an AminoLink® column (Pierce Biochemical) was carried out exactly according to the manufacturer's protocol. In brief, column was equilibrated with coupeling buffer and 1 column volume of solution containing 1 mg of peptide was incubated with gel for 6 h. Later column was drained and washed with coupeling buffer. […]
To further assess the role of the Ubc-9 binding domain in Mdm2 sumoylation, a peptide that corresponds to aa 40-59 of Mdm2 was synthesized. […] Beads coupled to the peptides were incubated with cell lysates and bound proteins were analyzed in Western blots using antibodies to Ubc9.

[2] = target: T2, GST-Mdm2 (Homo sapiens, UniProt Q00987); experiment: In vitro conjugation of SUMO-1 to GST-Mdm2 (in vitro sumoylation); assay type: biochemical
T2 construct: made in house
Description: A. Time dependent Mdm2 sumoylation in vitro. Bacterially expressed and purified GST-Mdm2 was subjected to in vitro sumoylation reaction in the presence of E1, Ubc9, and ^35S-Sumos. Reaction was terminated after 10,30,50 or 60 minutes, Proteins were separated on 8% gel, Commassie stained, dryed and exposed overnight (upper panel). Lower panel depicts Commassie blue staining of Mdm2 forms. […] (Upper part) The specific Ubc-9-binding site peptide or a nonspecific peptide was added to the reaction for the indicated time periods. […] The lower panel depicts a Coomassie staining visualizing relative amounts of sumoylated and non-sumoylated forms of purified GST-Mdm2. C. The Mdm2 sumoylation assay was carried out in the presence of Ubc-9-binding site peptide (mu9bs) or a nonspecific peptide (mu9bs) which were added to the reaction at the indicated concentrations. […] Mdm2/p53 double null cells were transfected with Flag-tagged Mdm2, HA-tagged Sumo-1 and increasing amounts of the specific or nonspecific Ubc-9-peptides, respectively. Cells were harvested 36 h later and 500 μg of protein was immunoprecipitated using Mdm2 antibodies (2A10). Immunoprecipitated Mdm2 levels were detected using 2A10 antibodies (top). The same membrane was stripped and reprobed using monoclonal antibodies against Sumo-1 (Zymed, middle) to visualize the level of Sumo-1 conjugation to Mdm2 after Ubc-9-peptide expression.
A. Bacterially expressed and purified Mdm2 (1 μg) was incubated with ^32P-labeled Sumo-1, purified Aos1/Uba2 and Ubc9 (0.5 μg) for 60 min at 37° C. in conjugation buffer. For indicated time-periods in vitro translated wt or mutant p19^ARF (0.5 mg) was added to the sumoylation reactions. Upper panel depicts the amount of Sumoylated Mdm2, lower panel reveal the level of Mdm2 and Sumo-Mdm2 in Coomassie blue gel. B. Bacterially expressed and purified Mdm2 (1 μg) was incubated with in vitro-translated ^35S-Sumo, purified Aos1/Uba2 and Ubc9 (0.5 μg) for 60 min at 37° C. in conjugation buffer in the presence of the increasing amounts of bacculovirus-expressed p19^ARF (0, 0.1, 0.5, 1 μg; lanes 1-4 respectively). Bead-bound complexes were washed before being denatured in 3× Sample Buffer. Proteins were separated on 8% SDS-PAGE. Gel was stained with Coomassie blue to verify equal Mdm2 input (lower panel), dried and exposed to X-ray film, which depicts SUMO-1 conjugation to Mdm2 in the presence of the indicated p19 forms (upper panel). […] Double-null cells were transfected with Flag-tagged Mdm2 (1.5 μg), HA-tagged SUMO (1.5 μg) and p19 wt (1.5 μg). Cells were treated with MG132 (40 mM) for 5 h prior to protein preparation. […] (Left) Immunoprecipitated Mdm2 was detected using monoclonal Mdm2 antibodies (2A10, left). […]

[3] = target: T3, Mdm2 (Homo sapiens, UniProt Q00987); experiment: In vivo sumoylation of Mdm2 in p53/Mdm2 double null cells; assay type: cell-based; settings: p53/Mdm2 double null cells, Flag-Mdm2, HA-Sumo-1, increasing amounts of peptide, 36 h
T3 construct: expressed in transfected cells; host or cells: p53/Mdm2 double null cells
Description: FIGS. 10A-10D. A. Time dependent Mdm2 sumoylation in vitro. Bacterially expressed and purified GST-Mdm2 was subjected to in vitro sumoylation reaction in the presence of E1, Ubc9, and ^35S-Sumos. Reaction was terminated after 10,30,50 or 60 minutes, Proteins were separated on 8% gel, Commassie stained, dryed and exposed overnight (upper panel). Lower panel depicts Commassie blue staining of Mdm2 forms. B. A peptide corresponding to the Ubc-9 binding site on Mdm2 decreases Mdm2 in vitro sumoylation of Mdm2 in a time-dependent manner. (Upper part) The specific Ubc-9-binding site peptide or a nonspecific peptide was added to the reaction for the indicated time periods. […] The lower panel depicts a Coomassie staining visualizing relative amounts of sumoylated and non-sumoylated forms of purified GST-Mdm2. C. The Mdm2 sumoylation assay was carried out in the presence of Ubc-9-binding site peptide (mu9bs) or a nonspecific peptide ([…]) which were added to the reaction at the indicated concentrations. […] D. A peptide corresponding to the Ubc-9 binding site on Mdm2 decreases Mdm2 sumoylation in vivo. […] Immunoprecipitated Mdm2 levels were detected using 2A10 antibodies (top). […]
FIG. 13A-13E. […] (Left) Immunoprecipitated Mdm2 was detected using monoclonal Mdm2 antibodies (2A10, left). […]

[4] = target: T1, Ubc9; experiment: Co-immunoprecipitation of Ubc9 with HA-tagged peptide expressed in NIH 3T3 cells; assay type: cell-based; settings: HA-tagged penetratin peptide vector, 36 h after transfection
Description: as §1
Vectors described in Example I were used in the present example. The sequence of the Ubc-9 binding domain on Mdm2 (aa 40-59, Mdm2 Ubc9 binding site; mu9bs) in wt or in a scrambled orientation (mu9sb) was cloned in frame between EcoRI and XhoI restriction sites into a pcDNA3 that carries the penetration sequence, followed by the sequence encoding the HA-tag. All Mdm2 mutants were cloned in pBluescipt KS. Mutant Ubc9C93S was a gift from Olli Jänne.
To further confirm the ability of the peptide corresponding to mu9bs to associate with Ubc9 we carried out in vivo reactions. […]

[5] = tested on: Mdm2 association with p53; experiment: p53 immunoprecipitation and immunoblot for bound Mdm2 form and p53 level in peptide-expressing cells; assay type: cell-based
Description: FIG. 11. Ubc9 binding affects the form of Mdm2 associated with p53. Mdm2/p53 double null cells were transfected with mu9sb or the wild type form mu9bs together with p53 and Mdm2. 36 h after transfection protein extracts were prepared and used for immunoprecipitation of p53 (using D01 antibodies). Immunoprecipitated material was analyzed via immunoblotting using antibodies to Mdm2, enabling to reveal the two major forms of Mdm2, indicated.
Therefore, we transfected human fibroblasts with mu9bs or mu9sb peptides. Immunoprecipitation of p53 was followed by Western blot analysis to determine the type and level of Mdm2 bound to p53 under each of these conditions.

[6] = target: T4, Ubc9 binding to Mdm2 (Homo sapiens, UniProt Q00987); experiment: In vitro binding of Ubc9 to GST-Mdm2; settings: GST-Mdm2 phosphorylated by active p38 kinase
T4 construct: made in house; host or cells: GST-Mdm2: bacteria; Ubc9: in vitro translation
Description: FIGS. 17A and 17B. A. p19^ARF decreases Ubc9 binding to Mdm2. Bacterially expressed and purified GST-Mdm2 (1 μg) was incubated with ^35S-labeled in vitro translated p19^ARF and Ubc9 at the indicated ratios. After 30 min of incubation GSH beads bound-GST-Mdm2 were washed and separated on a 12% SDS-PAGE. Gel was dried and subjected to autoradiograph, depicting relative amounts of Ubc9 and p19^ARF bound to Mdm2. B. Bacterially expressed and purified GST-Mdm2 (1 μg) was phosphorylated by purified form of active p38 kinase as indicated. Phosphorylated or un-phosphorylated Mdm2 was incubated for 30 min with in vitro translated UbcH5b and Ubc9 (25 μl). Beads were washed and separated on a 12% SDS-PAGE. Gel was dried and exposed to X-ray film. Position of Ubc9 and UbcH5b is shown.
A prerequisite for Mdm2 sumoylation is the association of Ubc9, the SUMO conjugating enzyme, with Mdm2, which enables subsequent conjugation of SUMO-1 to Mdm2. Inhibition of Ubc9's association with Mdm2 attenuates Mdm2 sumoylation. Given the effect of p19^ARF on Mdm2 sumoylation, we proceeded to determine whether p19^ARF may alter Ubc9 binding to Mdm2. To this end we performed an in vitro binding assay, using in vitro translated p19^ARF and Ubc-9, as indicated. […] We next assessed possible changes in Ubc9 binding to Mdm2 upon its phosphorylation by p38.

T2 sequence (Q00987 whole entry): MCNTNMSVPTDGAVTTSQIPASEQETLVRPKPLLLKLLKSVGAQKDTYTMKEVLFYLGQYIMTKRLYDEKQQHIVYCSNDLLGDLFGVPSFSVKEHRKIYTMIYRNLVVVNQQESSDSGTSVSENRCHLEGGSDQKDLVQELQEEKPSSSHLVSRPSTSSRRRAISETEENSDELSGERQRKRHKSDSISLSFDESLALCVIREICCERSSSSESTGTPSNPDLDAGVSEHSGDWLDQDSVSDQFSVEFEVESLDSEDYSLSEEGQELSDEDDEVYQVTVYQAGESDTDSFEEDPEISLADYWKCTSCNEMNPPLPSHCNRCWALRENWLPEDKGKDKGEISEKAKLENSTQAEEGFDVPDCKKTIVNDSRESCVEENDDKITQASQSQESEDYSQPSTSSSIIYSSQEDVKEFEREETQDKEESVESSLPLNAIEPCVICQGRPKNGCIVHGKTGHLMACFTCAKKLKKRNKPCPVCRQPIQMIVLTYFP
T1 sequence (P63280 whole entry): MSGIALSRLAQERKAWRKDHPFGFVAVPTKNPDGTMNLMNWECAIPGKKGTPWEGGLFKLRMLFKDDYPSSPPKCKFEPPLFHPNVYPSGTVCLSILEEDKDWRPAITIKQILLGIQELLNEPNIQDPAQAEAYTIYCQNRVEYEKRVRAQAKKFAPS
T3 sequence (Q00987 whole entry): as the sequence (Q00987 whole entry) above
T4 sequence (Q00987 whole entry): as above

mu9bs: peptide that corresponds to aa 40-59 of Mdm2 (mdm2 Ubc9 binding site) (SVGAQKDTYTMKEVLFYLGQ)
capture of Ubc9 by column-coupled peptide [1]: captured Ubc9 | Mdm2 sumoylation in vitro, increasing concentrations of peptide [2]: dose-dependent decrease of Mdm2 sumoylation | Mdm2 sumoylation in vitro, peptide added for different periods of time ([2]; peptide present 0-50 min of 60 min reaction): sufficient to attenuate Mdm2 sumoylation in a manner that coincided with the length of the incubation | degree of Mdm2 sumoylation in vivo upon peptide co-expression [3]: dose-dependent decrease in the degree of Mdm2 sumoylation in vivo | association of expressed peptide with Ubc9 in vivo [4]: associated with Ubc9 | overall level of p53 expression [5]: increased level of p53 | form of Mdm2 (75 kDa non-sumoylated / 90 kDa sumoylated) associated with p53 ([5]; peptide expression, p53 immunoprecipitation): p53 association only with the non-sumoylated form of Mdm2

p38: purified active p38 kinase that phosphorylates Mdm2
Ubc9 binding to Mdm2 upon in vitro phosphorylation of Mdm2 [6]: marked decrease in Ubc9 binding to Mdm2
